Assay results as given in US20170275665.

Molecular target: T1, Marinomonas mediterranea (MMB-1) Cas2, purified with N-terminal 6xHis tag
T1 chain: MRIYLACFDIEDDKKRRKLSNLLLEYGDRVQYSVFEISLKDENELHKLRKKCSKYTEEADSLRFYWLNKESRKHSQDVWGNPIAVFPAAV

B1: Marinomonas mediterranea (MMB-1) RT-Cas1 fusion protein, wild type, purified with N-terminal maltose-binding protein tag (protein)
chain: MLNSPLIDAVLPLRSVVITLRWLSPSKTGFLHHAGLHAWVRFLAGSPEQFSDFIVVEPIENGHISYQAGDGYRFRITVLNGGESLLDTLFSSLKRLPESAANHPDIAGAFSDNLVLEKIEDTFEHHQVTQIEDLSVFDINALMLETAVWSRQRRFKVAFNTPARLVKPKPEDGTELKGQNRYCRDKSDLNWQLFTHRLTDTFINLFQSRTGERLQRQNWPEAQLHAGLAVWLNNSYTNKKEKKVKDASGMLAQMQIEIDDDFPADLLALLVLGQYIGMGQNRAFGMGQYQLQDAYGYCSYPRPQAAKSLLEKSLSDASLHQACQTMYPRQANFDSSDTDEEHHDAIDELLTKLYVSRERIFKREFTPSQLHSVEIEKPEGGTRLLSVPNWHDRTLQKAVTECLGNTLEHIWMKHSYGYRKGHSRLQARDQINQYIQQGYEWVLESDIESFFDSVNWLNLEQRLKLLLPNEPLVPLLMQWVSAAKQTEDEQTLARHNGLPQGAPISPILANLLLDDLDQDMIAKGHQIVRYADDFVLLFKSKAAAESALDDIITALKEHHLAINLEKTRIVEASQGFRYLGYLFVDGYAIETKREYRKEHAQLDKQLNASSLENEPSLQQEPAVQNEQSTLIGEREKLGTLLIIAGDIAMLSSEKQRLIVEQYDELHTYPWATLSSVLLVGPHHITTPALKSAMFHNVPVHFASQYGRYQGVSAGAAPSVFGADFWLLQAQYLQQETNALNISQVLIQARIEGIRAVISRREKDAPELNKIQRLDEKRLRAETLDQLRGYEGQASKQLWAFFQRILEEDWGFTGRNRRPPKDPINALLSLGYTYLYSLVDSVNRTVGLYPWQGALHQRHGYHHTLASDLMEPWRYLVEHVVLTLINRHQIHKDDFVIKENGCEMSSGARKTLLKELLVQLTKVPKGGNSLLTEMSNQSYRLALSCKMQQRFIAWSPKR
In the case of B1, the “cleavage of the CRISPR DNA substrate with ligation of a dsDNA oligonucleotide (in vitro cleavage-ligation assay, gel)” value is reported as “products derived from cleavage of the CRISPR substrate were readily detected in the presence of RT-Cas1 and Cas2 together but not in the presence of either protein alone”.
